{"source": "paper PMC11500415", "about": "“Chemical inhibition of stomatal differentiation by perturbation of the master-regulatory bHLH heterodimer via an ACT-Like domain” (Nature Communications, 2024)", "molecules": {"B1": {"name": "SCREAM (SCRM), recombinant full-length protein (1-494) (natural protein, A. thaliana, UniProt Q9LSE2 1-494, looked up)", "chain": "MGLDGNNGGGVWLNGGGGEREENEEGSWGRNQEDGSSQFKPMLEGDWFSSNQPHPQDLQMLQNQPDFRYFGGFPFNPNDNLLLQHSIDSSSSCSPSQAFSLDPSQQNQFLSTNNNKGCLLNVPSSANPFDNAFEFGSESGFLNQIHAPISMGFGSLTQLGNRDLSSVPDFLSARSLLAPESNNNNTMLCGGFTAPLELEGFGSPANGGFVGNRAKVLKPLEVLASSGAQPTLFQKRAAMRQSSGSKMGNSESSGMRRFSDDGDMDETGIEVSGLNYESDEINESGKAAESVQIGGGGKGKKKGMPAKNLMAERRRRKKLNDRLYMLRSVVPKISKMDRASILGDAIDYLKELLQRINDLHNELESTPPGSLPPTSSSFHPLTPTPQTLSCRVKEELCPSSLPSPKGQQARVEVRLREGRAVNIHMFCGRRPGLLLATMKALDNLGLDVQQAVISCFNGFALDVFRAEQCQEGQEILPDQIKAVLFDTAGYAGMI", "notes": "SCRM (ICE1), A. thaliana, residues 1-494; called full-length in the results; The methods describe thrombin removal of GST for all recombinant proteins; For the BLI runs of SCRM with MUTE one partner must have kept GST (anti-GST probes); also called ICE1; source: E. coli BL21, purified (glutathione resin, thrombin digestion, Superdex-200); not shown: GST, N-terminal, cleaved"}, "B2": {"name": "MUTE, recombinant full-length protein (1-202), as used in ITC (natural protein, A. thaliana, UniProt Q9M8K6 1-202, looked up)", "chain": "MSHIAVERNRRRQMNEHLKSLRSLTPCFYIKRGDQASIIGGVIEFIKELQQLVQVLESKKRRKTLNRPSFPYDHQTIEPSSLGAATTRVPFSRIENVMTTSTFKEVGACCNSPHANVEAKISGSNVVLRVVSRRIVGQLVKIISVLEKLSFQVLHLNISSMEETVLYFFVVKIGLECHLSLEELTLEVQKSFVSDEVIVSTN", "notes": "called full-length in the results; source: E. coli BL21, purified (glutathione resin, thrombin digestion, Superdex-200); not shown: GST, N-terminal, cleaved"}}, "key": {"[1]": {"test_system": "stomatal movement", "design": "method as in PMID 35042960", "conditions": "previous chemical screens and SAR studies; cited from earlier work"}, "[2]": {"target": "T1, SCRM-SPCH heterodimer (Arabidopsis thaliana, UniProt Q700C7)", "T1 construct": "truncated SPCH and FAMA proteins lacking their N-terminal domain were used in yeast; expressed in transfected cells; host or cells: yeast strain AH109", "T1 sequence (Q700C7 98-364 limits assumed)": "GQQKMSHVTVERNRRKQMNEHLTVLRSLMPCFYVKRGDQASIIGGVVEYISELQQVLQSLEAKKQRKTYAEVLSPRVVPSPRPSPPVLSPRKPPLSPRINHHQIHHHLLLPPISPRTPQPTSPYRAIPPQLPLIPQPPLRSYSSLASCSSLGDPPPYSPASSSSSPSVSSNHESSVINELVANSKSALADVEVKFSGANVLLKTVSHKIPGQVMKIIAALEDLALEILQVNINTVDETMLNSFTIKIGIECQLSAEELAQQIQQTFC", "assay": "Y2H growth and quantitative α-galactosidase assay", "format": "cell-based", "conditions": "50 μM; 1 mM 3-AT; N-terminally truncated SPCH", "procedure": "(§1) Y2H assays were performed using the Matchmaker^TM Two-Hybrid System (Clontech). Bait (pGBKT7) and prey (pGADT7) constructs were co-transformed into the yeast strain AH109 using Frozen-EZ Yeast Transformation II Kit (Zymo Research, T2001). The resulting transformants were spotted on SD ( − Leu, −Trp) and SD ( − Trp, −Leu, −His) selection media containing different concentrations of 3-amino-1,2,4-triazole (Sigma, A8056) as previously reported. Quantitative α-galactosidase assay was also performed according to manufactural instruction (Clontech). Briefly, the transformants were incubated in 2 ml SD medium with 0, 10, 50 100 μM Stomidazolone (3) or SIM3* (7) with rotary shake (220 rpm) at 30 °C overnight. The cultured media containing yeast were transferred to microtubes and centrifuged to obtain the supernatant. The colorimetric assay was performed by incubating 8 μL of supernatant with 24 μL Assay Buffer that contains 0.5 M sodium acetate (pH 4.5) (Nakalai tesque, 31137-25): 100 mM p-nitrophenyl α-D-Galactopyranoside Solution (Sigma N0877) = 2:1 (v/v) at 30 °C for 60 min, then terminated by adding 960 μL 1X Stop Solution (0.1 M sodium carbonate, Fujifilm Wako 195-01582). After OD410 was recorded, α-galactosidase units were calculated according to the protocol (Clontech, P3024-1)."}, "[3]": {"target": "T2, SCRM-MUTE heterodimer (Arabidopsis thaliana, UniProt Q9M8K6)", "T2 construct": "expressed in transfected cells; host or cells: yeast strain AH109", "T2 sequence (Q9M8K6 1-202)": "B2 chain", "assay": "Y2H growth and quantitative α-galactosidase assay", "format": "cell-based", "conditions": "50 μM; 1 mM 3-AT", "procedure": "as §1"}, "[4]": {"target": "T3, SCRM-FAMA heterodimer (Arabidopsis thaliana, UniProt Q56YJ8)", "T3 construct": "truncated SPCH and FAMA proteins lacking their N-terminal domain were used in yeast; expressed in transfected cells; host or cells: yeast strain AH109", "T3 sequence (Q56YJ8 190-414, one chain of several)": "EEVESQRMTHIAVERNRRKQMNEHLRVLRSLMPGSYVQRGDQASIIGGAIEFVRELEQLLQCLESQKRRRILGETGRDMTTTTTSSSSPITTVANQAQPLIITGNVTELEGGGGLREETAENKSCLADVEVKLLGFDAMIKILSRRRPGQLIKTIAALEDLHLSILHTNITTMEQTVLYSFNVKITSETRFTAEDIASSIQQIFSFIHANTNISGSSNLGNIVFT", "assay": "Y2H growth and quantitative α-galactosidase assay", "format": "cell-based", "conditions": "50 μM; 1 mM 3-AT; N-terminally truncated FAMA", "procedure": "as §1"}, "[5]": {"test_system": "Arabidopsis wild-type (WT) seedlings", "assay": "Stomatal development bioassay, seedlings in liquid culture", "format": "in vivo", "conditions": "50 μM; WT seedlings, liquid culture", "procedure": "Arabidopsis accession Columbia (Col-0) was used as wild-type. […] Their genotype and transcript reduction were confirmed. The presence of transgenes/mutant alleles were confirmed by genotyping. For liquid culture with Stomidazolone (AYSJ929, compound 3), the analogs (AYSJ1059 (compound 5) and AYSJ1061 (compound 6)), degraded compound lzx103 (compound 4), and SIM3* (compound 7), all compounds were dissolved in dimethyl sulfoxide (DMSO, Molecular biology grade, Fujifilm Wako, Japan 046-21981), Col-0 seeds were sown in 96-well plates (TL5003; True Line) containing 95 μL of 1/2 MS media containing 0.5% sucrose with rotary shaking at 140 rpm under continuous light at 22 °C. Five μL of compounds were dissolved in DMSO at 10 mM and diluted with liquid 1/2 MS media to 1 mM and added on 1-day-old seedlings (final concentration, 50 μM). Seedlings were incubated for 8 days, and at day 9 seedling abaxial cotyledons were observed through confocal microscopy. For liquid culture of scrm-D_S343 and scrm-D_S423, 1/2 MS liquid media without sucrose was used. For the solid culture, 0, 20, 50 or 100 μM Stomidazolone were solidified with low-melting agarose (5805S, PrimeGelTM Agarose LMT 1-20 K, TAKARA Bio). Briefly, 1/2 MS salt, 0.5% sucrose, and 0.8% low melting agarose were mixed in water and autoclaved. After cooling the medium at around 30 °C, Stomidazolone (500x, dissolved in DMSO) was added and poured into 90 mm petri dishes (Asnol Petri Dish JP φ90 x 15 mm, 3-1491-01, AS ONE). Col-0 seeds were sown on Stomidazolone-containing 1/2 MS agarose media and grown under continuous light for 9 days.\nFor confocal microscopy, cell peripheries of seedlings were visualized with propidium iodide (Sigma, P4170). Images were acquired using LSM800 or LSM700 (Zeiss) using a 20x lens. The GFP, YFP reporter and PI signals were detected with excitation at 488 nm and an emission filter of 410 to 546 nm, at 488 nm and an emission filter of 410 to 546 nm, and with excitation at 561 nm and 582–617 nm emission range, respectively. Raw data were collected with 1024 × 1024 pixel images. For qualitative image presentation, Adobe Photoshop CC was used to trim and uniformly adjust the contrast/brightness.\nFor quantitative analysis of the abaxial leaf epidermis, confocal images were taken on the days after germination as indicated in the Figure legends. Preparation of images was done as described previously[32],[70]. For counting epidermal cell types, stomatal density, stomatal precursor cells (meristemoids), total stomata-lineage cells (stomata and meristemoids) were calculated by counting cell types in an area of 0.4 mm^2 (0.63 mm × 0.63 mm) and plotted as per mm^2. A series of Z-stack confocal images was obtained to obtain images covering the epidermis and capturing GFP/YFP signal from the reporter lines. The area and the number of epidermal cells were quantified by using FIJI-ImageJ. Statistical analyses were performed using R ver. 4.0.2. Sample sizes (n) are indicated and defined in each legend. For the multiple sample comparison, 1-way ANOVA was performed followed by a post hoc Tukey HSD test. For the two-sample comparison, Student’s T-test was performed. Graphs were generated using R ggplot2 package. For all boxplots, each box represents IQR (interquartile range), in which top, middle line, and bottom indicating 75, 50, and 25 percentiles, respectively, and the bar representing maximum to minimal values. Each magenta dot represents jittered individual data point. The datapoints that go beyond the bar are outliers, which are indicated as black dots. If the data point is greater than Q3 + 1.5*IQR (above the third quartile is greater than 1.5 times of the interquartile range) or less than Q1 − 1.5*IQR, that data point is classified as outlier. The color of Boxplot graph was based on ColorBrewer.org. The value of n, the number of each experiment or samples, the means of error bars, and how statistical significance was defined are indicated in a relevant figure legend. […]"}, "[6]": {"target": "B2", "assay": "ITC; SCRM to MUTE in the presence of AYSJ1061 (6); Malvern PEAQ-ITC; PBS with 2% DMSO and 1 mM DTT; methods: 30 °C, pH 7.4; legend of Supplementary Table 2: pH 7.2, 25 °C", "conditions": "both partners purified"}, "[7]": {"target": "B2", "assay": "ITC; SCRM to MUTE, no compound; Malvern PEAQ-ITC; PBS with 2% DMSO and 1 mM DTT; methods: 30 °C, pH 7.4; legend of Supplementary Table 2: pH 7.2, 25 °C; means of two experiments", "conditions": "both partners purified"}, "[8]": {"target": "B2", "assay": "ITC; SCRM to MUTE pre-incubated with Stomidazolone (3); Malvern PEAQ-ITC; PBS with 2% DMSO and 1 mM DTT; methods: 30 °C, pH 7.4; legend of Supplementary Table 2: pH 7.2, 25 °C", "conditions": "both partners purified"}, "[9]": {"target": "B2", "assay": "ITC; SCRM to MUTE in the presence of AYSJ1059 (5); Malvern PEAQ-ITC; PBS with 2% DMSO and 1 mM DTT; methods: 30 °C, pH 7.4; legend of Supplementary Table 2: pH 7.2, 25 °C", "conditions": "both partners purified"}, "[10]": {"target": "B1", "assay": "ITC; SCRM to MUTE in the presence of AYSJ1061 (6); Malvern PEAQ-ITC; PBS with 2% DMSO and 1 mM DTT; methods: 30 °C, pH 7.4; legend of Supplementary Table 2: pH 7.2, 25 °C", "conditions": "both partners purified"}, "[11]": {"target": "B1", "assay": "ITC; SCRM to MUTE in the presence of AYSJ1059 (5); Malvern PEAQ-ITC; PBS with 2% DMSO and 1 mM DTT; methods: 30 °C, pH 7.4; legend of Supplementary Table 2: pH 7.2, 25 °C", "conditions": "both partners purified"}}}
{"molecule": "Cc1nc(-c2ccccc2)c(NS(=O)(=O)c2ccccc2)o1", "note": "[SIM3*, reference compound]", "values": [{"measurement": "effect on stomatal movement (in words)", "setting": "[1]", "value": "inhibit stomatal movement"}, {"measurement": "effect on association in Y2H growth assay", "setting": "[2]", "value": "no effects"}, {"measurement": "effect on association in Y2H growth assay", "setting": "[3]", "value": "no effects"}, {"measurement": "effect on association in Y2H growth assay", "setting": "[4]", "value": "no effects"}, {"measurement": "effect on stomatal development (in words)", "setting": "[5]", "value": "no effects"}]}
{"molecule": "B1", "values": [{"measurement": "stoichiometry N", "setting": "[6]", "value": 1.1}, {"measurement": "stoichiometry N", "setting": "[7]", "value": 0.96}, {"measurement": "stoichiometry N", "setting": "[8]", "value": 0.91}, {"measurement": "stoichiometry N", "setting": "[9]", "value": 1}]}
{"molecule": "B2", "values": [{"measurement": "Kd", "setting": "[10]", "value": "11.4 ± 2.1", "unit": "nM"}, {"measurement": "Kd", "setting": "[11]", "value": "9.6 ± 1.8", "unit": "nM"}]}
